# ± gives the standard error. This sample holds only a part of the variants without activity.
# B1: glmS ribozyme (parent)
# chain: AUAAAAGCGCCAGAACUACAGAAAUGUAGUUGACGAGGAGGAGGUUUAUCGAAUUUUCGGCGGAUGCCUCCAAA
# Variants of: B1
# Assay: self-cleavage kobs at 10000 uM GlcN6P; higher = faster cleavage; RNA array
# Conditions: with glucosamine-6-phosphate
# In short: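 kobs was derived by fitting per-tile medians to one- or two-exponential decays after normalising signals to baseline and to non-cleaving reference variants. Those signals came from barcoded ribozyme variants transcribed in situ by E. coli RNA polymerase on sequenced MiSeq chips, followed through a hybridised Cy3 probe at 37 °C and imaged over ~14 h. Glucosamine-6-phosphate (40 μM to 10 mM) in HEPES/KCl/Mg(OAc)2 buffer was flowed in. Weighted Michaelis–Menten fits across concentrations then gave kcat and KM.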
row,Variant,self-cleavage kobs at 10000 uM GlcN6P [s⁻¹]
1,U30G A53U U69A,4.29e-05 ± 1.8e-05
2,G35C C50A G51A,< 1e-05
3,G37U C58G,< 1e-05
4,A14U A42G U47C,0.000229 ± 8.1e-05
5,A12C A39U A48C,4.14e-05 ± 1e-05
6,C34A G41A C68G,< 1e-05
7,U31C G41A G66A,0.00018 ± 2.8e-05
8,U31C C58A G63U,< 1e-05
9,C11G C50G C68G C71U,8.16e-05 ± 1.7e-05
10,A12G U57C C58G,2.94e-05 ± 1.4e-05
11,C10U U55C G62U,< 1e-05
12,A14C U31C G41A,7.28e-05 ± 1.8e-05
13,A14U A36U C50U C70A,7.4e-05 ± 2.1e-05
14,A14G C34A G38A C67A,< 1e-05
15,G13C A36G G51A U55A,< 1e-05
16,G35C G43C,< 1e-05
17,C10U A15U U45A,< 1e-05
18,G32A G37C G40A,< 1e-05
19,A14U A15C C68U,6.11e-05 ± 2e-05
20,G29C U31C G66A,0.000105 ± 2.5e-05
21,A12U G43U U46A,4.1e-05 ± 1.8e-05
22,C34A G43A U49G C70G,< 1e-05
23,C10U C11U G66C,< 1e-05
24,U31A U47G A48G,3.62e-05 ± 1.3e-05

row,Variant,self-cleavage kobs at 10000 uM GlcN6P [s⁻¹]
1,A36U A52U U65G U69C,< 1e-05
2,A14G G29A U30C A39G,4.63e-05 ± 1.6e-05
3,A15C C16G G37C C58A G63C,< 1e-05
4,A28C C68U,0.00228 ± 0.00063
5,A14C U54G C70A,7.96e-05 ± 1.8e-05
6,C11G G13U G37C,< 1e-05
7,C34U G38C G60C,< 1e-05
8,U30A G32A G41C G51C C61A C71U,< 1e-05
9,A33G A42G G59U C61A,< 1e-05
10,G35C A42U C71U,< 1e-05
11,A15C C16G U31A,0.000253 ± 7.3e-05
12,A14U G44U U45G U46G,4.76e-05 ± 1.9e-05
13,U31C G38C U45A C50A C58U,< 1e-05
14,A36U A39C U65C,< 1e-05
15,U31G A36U G40C U56G G66A,< 1e-05
16,A15C U31A G38C G41C,< 1e-05
17,G37A A39G U54G U55A,0.00276 ± 0.00061
18,A12C U49A G66C C71U,< 1e-05
19,G29C A64G C70U,3.15e-05 ± 1.4e-05
20,G35C G51U C58U C61G A64G U65A,< 1e-05
21,U31A G43C C68U,0.000192 ± 5.2e-05
22,U30C U54G C67G,2.88e-05 ± 1.3e-05
23,A12G G37A G43A A52G,< 1e-05
24,U30C G44U C58G,< 1e-05

row,Variant,self-cleavage kobs at 10000 uM GlcN6P [s⁻¹]
1,U30A A33U G37C U69A,< 1e-05
2,A36G A53C C67A,< 1e-05
3,A12U A14G G41A A42G,0.000918 ± 0.0002
4,A12G A42G A52G,2.4e-05 ± 1.2e-05
5,A12C C16U A53C G63A,< 1e-05
6,G13A A42G,0.000882 ± 0.00023
7,A14C U55G C67G,0.000215 ± 3.8e-05
8,C16G U46G C67U,0.000334 ± 6.9e-05
9,C16U G62C,< 1e-05
10,G32C U56A C71A,3.09e-05 ± 1.5e-05
11,A15C G41U G66A,0.000194 ± 4.9e-05
12,G21U A52G,0.00145 ± 0.0003
13,C11G C61G,< 1e-05
14,U30A A33G C61G C70A,< 1e-05
15,U30C G35U G43U G66U,< 1e-05
16,G29U U46G C68U,0.000229 ± 4.1e-05
17,G37A G40A C58U G66C,< 1e-05
18,A36C C61A,< 1e-05
19,U30C A36C U49A,< 1e-05
20,A12G A42C U69A,0.000102 ± 1.5e-05
21,C16G U45G U46A,0.000584 ± 0.00015
22,A33G G37C C50G C68A,0.00162 ± 0.00046
23,U31C C67G C70A,< 1e-05
24,A12G A14C C67U,7.11e-05 ± 1.5e-05

row,Variant,self-cleavage kobs at 10000 uM GlcN6P [s⁻¹]
1,G37C A42C U57A,< 1e-05
2,G32C G38U A42C G43C A52C,< 1e-05
3,G32C A36C G51C,< 1e-05
4,U30G G35A G40C C68G,< 1e-05
5,C11U U31C A42G A53U,0.000372 ± 8e-05
6,A12U U46G A48G,9.42e-05 ± 2.1e-05
7,A14U A53U C68G,5.14e-05 ± 1.1e-05
8,A14C U31A U69G,5.33e-05 ± 1.5e-05
9,U31A A33G C67A,< 1e-05
10,G13U U31G A64G,0.00021 ± 5.2e-05
11,A15C A64G C67G C68U,< 1e-05
12,C11U A15G U31C C67G,6.25e-05 ± 1.8e-05
13,G32A U45G U47A,0.000614 ± 0.00014
14,C11A G44U C67U,4.33e-05 ± 2.1e-05
15,A12U G29C U46A,0.000658 ± 0.00018
16,U31A A36G U49G C50U C58A,< 1e-05
17,G32A U69G C71A,4.49e-05 ± 1.6e-05
18,A12G U46G A53U,9.96e-05 ± 1.8e-05
19,U30G A42U,3.53e-05 ± 8.7e-06
20,C19G G37A,0.00215 ± 0.00044
21,A12C A42C G59C,< 1e-05
22,U31G G38U A53U,< 1e-05
23,A14C A39U U47C C70U,0.00047 ± 6.5e-05
24,A15G U49G G60A,< 1e-05

row,Variant,self-cleavage kobs at 10000 uM GlcN6P [s⁻¹]
1,C34A G51A C67G C70A,< 1e-05
2,C11A A12C U31C U49A,< 1e-05
3,A12G U30G C58A,0.000483 ± 9.8e-05
4,C10U C50G A53U U54G U55C C68G,6.48e-05 ± 2e-05
5,G29U A48G G51A,< 1e-05
6,U30C G38A G63C U69C,< 1e-05
7,C11A C16G C58U C68A,0.000263 ± 8.9e-05
8,A14C G44A U45A,7.22e-05 ± 2.3e-05
9,C11A U69G C71G,4.63e-05 ± 1.5e-05
10,G38A A52U U56G,< 1e-05
11,C16U A53U U65G,0.00246 ± 0.00058
12,G29C G32U C70A,0.000104 ± 2.2e-05
13,A12C A52U C67G,0.000146 ± 3.5e-05
14,C16A G29U C58A,0.000415 ± 0.00011
15,A14G G37C U45A U49C G59U,< 1e-05
16,A14U U45G C61U,< 1e-05
17,G13U A42G C50U,< 1e-05
18,G29U G35C G43C G59A,< 1e-05
19,C11U G60A C68G,5.38e-05 ± 1.9e-05
20,A12G U46A C71G,3.42e-05 ± 1.3e-05
21,A33G C50U C58G C71U,< 1e-05
22,G38A A42G U49A,< 1e-05
23,A14G C16A G29C A53G,0.000885 ± 0.00021
24,C11U C34A G43C,< 1e-05

row,Variant,self-cleavage kobs at 10000 uM GlcN6P [s⁻¹]
1,A14C G59C G62C,< 1e-05
2,C10U G35U A42G U56G,< 1e-05
3,U31A A39C U56G,0.00147 ± 0.0004
4,G35C A48U C70G,< 1e-05
5,C16G C67A C70U,9.5e-05 ± 2.1e-05
6,U30G U47C U54C C67U,5.7e-05 ± 2.2e-05
7,A12G G29A U46C,6.56e-05 ± 1.2e-05
8,A36C U57A,< 1e-05
9,C11G G13U C61G,< 1e-05
10,A15U G40U U54A,7.33e-05 ± 1.6e-05
11,A14C U30A U47G C70U,8.66e-05 ± 1.4e-05
12,G32C G35C U49C C68A,< 1e-05
13,G29U U47G C67G,0.000103 ± 1.9e-05
14,U31A G32A A42G,0.000766 ± 0.00025
15,G13A G38U,< 1e-05
16,A36C U54A G59A,< 1e-05
17,G13U C16U U31A A33U G35C,< 1e-05
18,A12G A36C C67G,< 1e-05
19,C10U G43U G60U,< 1e-05
20,C11A U54G A64G U69G,9.78e-05 ± 2.2e-05
21,A15G C61G G62C,< 1e-05
22,G13U A15U G62A C68A C70G,< 1e-05
23,C10U A42G,3.17e-05 ± 7.6e-06
24,G29C G44A C58G,< 1e-05

row,Variant,self-cleavage kobs at 10000 uM GlcN6P [s⁻¹]
1,C11A A14G C34U G66C,< 1e-05
2,A14G A15G U47C U55A C70G,0.000483 ± 0.00014
3,A33U U47A,9.99e-05 ± 1.7e-05
4,A33C G44C G60A,< 1e-05
5,C11A A52G,3.16e-05 ± 9.6e-06
6,G13C U56G A64G C67A,3.32e-05 ± 1.4e-05
7,G38A G43C U65G,< 1e-05
8,C16U C34U G44A,< 1e-05
9,C16U G41U U47A,0.000489 ± 7.1e-05
10,U30G G37C U45A A52G,< 1e-05
11,U30A G37C C50U,< 1e-05
12,A33G A36G A39U A53G,< 1e-05
13,A33C A36G U47G G51A,< 1e-05
14,C10U C16U A39C U65C,< 1e-05
15,A12G U46C,0.000349 ± 5.9e-05
16,U31A U46G,0.00387 ± 0.0007
17,A14C U65G C68U,0.000226 ± 4.7e-05
18,U31A A39G U55C,0.0297 ± 0.011
19,G13A A39G C67U,0.000112 ± 2.2e-05
20,A14G U47C U56G,0.0112 ± 0.0019
21,G21U G41C C70U,0.000298 ± 8.1e-05
22,C11G G38A A48C G60C G62C C68U,< 1e-05
23,A33C G38A C58A,< 1e-05

# From the supplement of paper PMC7125110
